Positions of bridges follow the written chain, without caps; N, C: chain ends. No end group written: not given here. COCH2 = acetyl group that carries the bridge
Target: T1, Recombinant Human FGFR1 alpha (IIIc) Fc Chimera Protein (Homo sapiens, UniProt P11362)
T1 construct: purchased R&D systems 658-FR-050
Assay: ELISA binding affinity of enzymatically synthesized peptide to FGFR
Settings: ELISA luminescence signal at 10 nmol/L peptide, SEQ ID NO: 239 standardized to 1; enzyme synthesis product
Method: The binding affinity of the peptide to FGFR was evaluated using an ELISA method.
The peptide used for the evaluation was enzymatically synthesized by the following method.
First, a fusion peptide (SEQ ID NO: 25) in which a translation enhancing sequence (SEQ ID NO: 22), a peptide, a Myc tag (SEQ ID NO: 23), and a HiBiT tag (SEQ ID NO: 24) were linked in this order was designed. Next, a template DNA sequence (SEQ ID NO: 26) was designed in which a T7 promoter sequence, a Shine-Dalgarno sequence, a sequence necessary for transcription and translation initiation, such as a start codon (ATG), was provided on the 5′ terminal side of the DNA sequence encoding the fused peptide, and a stop codon group was provided on the 3′ terminal side thereof. In a case where the triplet TAG codon is included in the template DNA sequence, the above-described codon is assigned to the codon of chloroacetylated lysine, and thus, the peptide encoded by the above-described DNA sequence is a cyclic peptide in which a thiol group of cysteine and a chloroacetyl group of chloroacetylated lysine spontaneously form a thioether bond.
The cell-free enzymatic synthesis of the polypeptide was performed in a translation solution containing a template DNA, PUREfrex 2.0 (GeneFrontier, PF201-0.25-5), and Aminoacyl tRNA (1). 1.75 μL ([…]) of the template DNA prepared to 50 ng/μL, 2.5 μL of PUREfrex 2.0 Solution I, 0.25 μL of Solution II, 0.5 μL of Solution III, and a dried product of Aminoacyl tRNA (1) (final concentration: 0.5 ng/μL) were mixed and mixture was subjected to a reaction at 37° C. for 1 hour.
The concentration of the enzymatically synthesized peptide was measured using the peptide diluted with Can Get Signal Immunoreaction Enhancer Solution I (TOYOBO, NKB-101), Nano-Glo HiBiT Lytic Detection System (Promega, N3040), and a chemical synthetic peptide for a calibration curve having a known concentration (SEQ ID NO: 33) according to the standard protocol of the Nano-Glo HiBiT Lytic Detection System.
The binding affinity of the enzymatically synthesized peptide to FGFR was measured by evaluating the amount of the peptide bound to FGFR by ELISA.
First, 5 ng of Recombinant Human FGFR1 alpha (IIIc) Fc Chimera Protein (R&D systems, 658-FR-050) was immobilized in each well of a 96-well plate, and blocked with Pierce Protein-Free (PBS) Blocking Buffer (Thermo, 37572), and a peptide diluted with Can Get Signal Immunoreaction Enhancer Solution I (TOYOBO, NKB-101) was then added and reacted at room temperature for 3 hours. After washing with 0.05% Tween 20-containing phosphate buffered saline (PBS), an anti-Myc antibody (Cell Signaling, 14038S) diluted with Can Get Signal Immunoreaction Enhancer Solution II (TOYOBO, NKB-101) was added and reacted at room temperature for 2 hours. After washing with 0.05% Tween 20-containing PBS, SuperSignal ELISA Femto Substrate (Thermo, 37075) was added, and the luminescence amount was measured. The dose-response relationship was calculated from using the difference between the luminescence amount in the well in which FGFR was immobilized and the luminescence amount in the well in which FGFR was not immobilized, and the concentration of the peptide at the time of reaction, and the binding affinity to FGFR was evaluated according to the following evaluation criteria. The evaluation result preferably satisfies the evaluation criteria A, B, or C.
In a case where a value of a luminescence signal emitted by the cyclic peptide set forth in SEQ ID NO: 239 at a reaction concentration of 10 nmol/L is standardized to 1, evaluation criteria of the luminescence signal value emitted by the peptide at a reaction concentration of 10 nmol/L is as follows. • A: 0.7 or more • B: 0.5 or more and less than 0.7 • C: 0.1 or more and less than 0.5 • D: less than 0.1.

T1 sequence (P11362 with tags, fused parts or gaps limits assumed): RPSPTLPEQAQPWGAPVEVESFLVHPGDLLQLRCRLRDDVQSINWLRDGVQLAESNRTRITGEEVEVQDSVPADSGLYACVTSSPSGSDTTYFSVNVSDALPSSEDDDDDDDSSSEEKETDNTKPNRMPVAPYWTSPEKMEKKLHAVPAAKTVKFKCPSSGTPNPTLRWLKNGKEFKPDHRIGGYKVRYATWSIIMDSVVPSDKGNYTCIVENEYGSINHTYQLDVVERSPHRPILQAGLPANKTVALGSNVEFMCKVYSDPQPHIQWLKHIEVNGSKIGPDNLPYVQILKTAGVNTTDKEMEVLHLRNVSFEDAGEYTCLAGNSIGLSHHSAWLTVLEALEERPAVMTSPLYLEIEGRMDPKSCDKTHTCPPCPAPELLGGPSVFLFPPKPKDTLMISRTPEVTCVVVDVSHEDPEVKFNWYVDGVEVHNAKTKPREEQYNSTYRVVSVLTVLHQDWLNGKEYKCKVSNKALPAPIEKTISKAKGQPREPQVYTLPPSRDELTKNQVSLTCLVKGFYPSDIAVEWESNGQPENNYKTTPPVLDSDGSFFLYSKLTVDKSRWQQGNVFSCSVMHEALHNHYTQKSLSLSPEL

Substance | Evaluation result of binding affinity to FGFR
34 (CRALLRGAPFHLAEC; disulfide 1-15 (inferred)) [compound 34] | D (less than 0.1)
36 (CRALLRGAPFHLAEK; not fully specified; Description of Artificial Sequence: Cyclic peptide) [compound 36] | D (less than 0.1)
37 (CDRTLLYYRLSK; not fully specified; Description of Artificial Sequence: Cyclic peptide) [compound 37] | D (less than 0.1)
38 (ICVYTFDAHAHSLHAALTKI; not fully specified; Description of Artificial Sequence: Cyclic peptide) [compound 38] | A (0.7 or more)
42 (LCVYTFDAHAHSLHAALTK(COCH2)I; thioether 2-19 (inferred)) [compound 42] | A (0.7 or more)
49 (SCVYTFDAHAHSLHAALTK(COCH2)I; thioether 2-19 (inferred)) [compound 49] | A (0.7 or more)
50 (TCVYTFDAHAHSLHAALTK(COCH2)I; thioether 2-19 (inferred)) [compound 50] | A (0.7 or more)
52 (ECVYTFDAHAHSLHAALTK(COCH2)I; thioether 2-19 (inferred)) [compound 52] | A (0.7 or more)
53 (RCVYTFDAHAHSLHAALTK(COCH2)I; thioether 2-19 (inferred)) [compound 53] | A (0.7 or more)
54 (HCVYTFDAHAHSLHAALTK(COCH2)I; thioether 2-19 (inferred)) [compound 54] | A (0.7 or more)
55 (ICAYTFDAHAHSLHAALTK(COCH2)I; thioether 2-19 (inferred)) [compound 55] | C (0.1 or more and less than 0.5)
56 (ICLYTFDAHAHSLHAALTK(COCH2)I; thioether 2-19 (inferred)) [compound 56] | B (0.5 or more and less than 0.7)
57 (ICIYTFDAHAHSLHAALTK(COCH2)I; thioether 2-19 (inferred)) [compound 57] | A (0.7 or more)
58 (ICFYTFDAHAHSLHAALTK(COCH2)I; thioether 2-19 (inferred)) [compound 58] | C (0.1 or more and less than 0.5)
59 (ICYYTFDAHAHSLHAALTK(COCH2)I; thioether 2-19 (inferred)) [compound 59] | C (0.1 or more and less than 0.5)
60 (ICTYTFDAHAHSLHAALTK(COCH2)I; thioether 2-19 (inferred)) [compound 60] | C (0.1 or more and less than 0.5)
61 (ICVFTFDAHAHSLHAALTK(COCH2)I; thioether 2-19 (inferred)) [compound 61] | C (0.1 or more and less than 0.5)
62 (ICVWTFDAHAHSLHAALTK(COCH2)I; thioether 2-19 (inferred)) [compound 62] | C (0.1 or more and less than 0.5)
63 (ICVHTFDAHAHSLHAALTK(COCH2)I; thioether 2-19 (inferred)) [compound 63] | A (0.7 or more)
65 (ICVYGFDAHAHSLHAALTK(COCH2)I; thioether 2-19 (inferred)) [compound 65] | C (0.1 or more and less than 0.5)
66 (ICVYLFDAHAHSLHAALTK(COCH2)I; thioether 2-19 (inferred)) [compound 66] | C (0.1 or more and less than 0.5)
67 (ICVYIFDAHAHSLHAALTK(COCH2)I; thioether 2-19 (inferred)) [compound 67] | C (0.1 or more and less than 0.5)
69 (ICVYQFDAHAHSLHAALTK(COCH2)I; thioether 2-19 (inferred)) [compound 69] | B (0.5 or more and less than 0.7)
70 (ICVYSFDAHAHSLHAALTK(COCH2)I; thioether 2-19 (inferred)) [compound 70] | A (0.7 or more)
71 (ICVYEFDAHAHSLHAALTK(COCH2)I; thioether 2-19 (inferred)) [compound 71] | C (0.1 or more and less than 0.5)
72 (ICVYRFDAHAHSLHAALTK(COCH2)I; thioether 2-19 (inferred)) [compound 72] | C (0.1 or more and less than 0.5)
73 (ICVYHFDAHAHSLHAALTK(COCH2)I; thioether 2-19 (inferred)) [compound 73] | C (0.1 or more and less than 0.5)
75 (ICVYTGDAHAHSLHAALTK(COCH2)I; thioether 2-19 (inferred)) [compound 75] | C (0.1 or more and less than 0.5)
76 (ICVYTYDAHAHSLHAALTK(COCH2)I; thioether 2-19 (inferred)) [compound 76] | B (0.5 or more and less than 0.7)

Now from value to substance:

Evaluation result of binding affinity to FGFR | Substance
D (less than 0.1) | 35 (CDRTLLYYRLSC; disulfide 1-12 (inferred)) [compound 35]
A (0.7 or more) | 39 (ACVYTFDAHAHSLHAALTK(COCH2)I; thioether 2-19 (inferred)) [compound 39]
A (0.7 or more) | 40 (GCVYTFDAHAHSLHAALTK(COCH2)I; thioether 2-19 (inferred)) [compound 40]
A (0.7 or more) | 41 (PCVYTFDAHAHSLHAALTK(COCH2)I; thioether 2-19 (inferred)) [compound 41]
A (0.7 or more) | 43 (VCVYTFDAHAHSLHAALTK(COCH2)I; thioether 2-19 (inferred)) [compound 43]
A (0.7 or more) | 44 (FCVYTFDAHAHSLHAALTK(COCH2)I; thioether 2-19 (inferred)) [compound 44]
A (0.7 or more) | 45 (YCVYTFDAHAHSLHAALTK(COCH2)I; thioether 2-19 (inferred)) [compound 45]
B (0.5 or more and less than 0.7) | 46 (WCVYTFDAHAHSLHAALTK(COCH2)I; thioether 2-19 (inferred)) [compound 46]
A (0.7 or more) | 47 (NCVYTFDAHAHSLHAALTK(COCH2)I; thioether 2-19 (inferred)) [compound 47]
A (0.7 or more) | 48 (QCVYTFDAHAHSLHAALTK(COCH2)I; thioether 2-19 (inferred)) [compound 48]
A (0.7 or more) | 51 (DCVYTFDAHAHSLHAALTK(COCH2)I; thioether 2-19 (inferred)) [compound 51]
B (0.5 or more and less than 0.7) | 64 (ICVYAFDAHAHSLHAALTK(COCH2)I; thioether 2-19 (inferred)) [compound 64]
C (0.1 or more and less than 0.5) | 68 (ICVYVFDAHAHSLHAALTK(COCH2)I; thioether 2-19 (inferred)) [compound 68]
C (0.1 or more and less than 0.5) | 74 (ICVYTADAHAHSLHAALTK(COCH2)I; thioether 2-19 (inferred)) [compound 74]
